Assay results: US8697648B2, “Protein agent for diabetes treatment and β cell imaging” (Georgia State University Research Foundation, Inc., priority 2009, dated 2014)
Like-named read-outs stand apart in the source and are kept apart here.

Key:
[1] = cited from earlier work
[2] = system: Diabetic mice (BKS.Cg-Lepr^db/db); assay: Blood glucose lowering in fed diabetic mice (Example 15); assay type: in vivo
Description: The animals were re-feed for 25 minutes 5 hours after drug administration and 35 minutes before the last time point of blood sample collection. The A Blood Glucose (mg/dl) was determined by calculating the difference between the measured blood glucose levels at any given time point and the initial blood glucose levels. The initial blood glucose levels were measured after feeding for 20 min and before the drug administration (time zero). The error bars represent standard deviations of measurements of eight mice.
The developed protein agent was tested to determine whether it had the in vivo capability of lowering blood glucose in diabetic subjects. Diabetic mice (BKS.Cg-Lepr^db/db, The Jackson Laboratory) were used as test subjects. A group of six animals first fasted for 6 hours. After fasting, the animals were fed for 30 minutes. The protein agent was administered after feeding by intraperitoneal injection at a dose of 25 nmole/kg. The animals were fed again for 30 mins, 5 hrs after agent administration. Blood samples were taken at different time points after administration of the agent. Glucose concentration in the blood samples was measured using a commercially available kit.

[3] = system: diabetic mice; assay: Blood glucose and glucose-dependent insulin secretion after co-administration with glucose (Example 16); assay type: in vivo; conditions: 25 nmole/kg agent with 15 mmole/kg glucose i.p.
Description: FIG. 12 is a pair of graphs showing the changes in Δ blood glucose (Upper panel) and Δ insulin (bottom panel) in a group of 8 diabetic mice at different time points after injection of 15 mmole/kg of glucose with 25 nmole/kg of different agents.
The effects of the developed agent on blood glucose lowering and stimulating of the glucose-dependent insulin secretion in diabetic mice were also examined. The animals first fasted for 6 hours. The protein agent (25 nmole/kg) and glucose (15 mmole/kg) were co-administrated via intraperitoneal injection with a group of eight diabetic mice. The blood glucose and insulin levels were measured at different time points. As controls, the same dose of glucose was administrated alone and co-administrated with the parental protein calbindin in separate groups of diabetic mice.

[4] = R1 and R2 relaxivity with a relaxometer; assay type: physicochemical; conditions: 1.4 T
Description: To ensure that the fusion protein is applicable as a MRI contrast agent, the Gd^3+ binding property and R1/R2 relaxivity of the fusion protein were tested using well-known methods.

[5] = molecular target: T1, GLP-1 receptor (Rattus norvegicus, UniProt P32301); assay: Cell-based intracellular cAMP assay (Lance cAMP 384 kit) in RINm5F cells; conditions: concentration around 200 μM
T1 construct: It is well known that GLP-1R is expressed in RINm5F but not in CHO cells; endogenous in cells; host or cells: RINm5F rat insulinoma cells
T1 sequence (P32301 22-463): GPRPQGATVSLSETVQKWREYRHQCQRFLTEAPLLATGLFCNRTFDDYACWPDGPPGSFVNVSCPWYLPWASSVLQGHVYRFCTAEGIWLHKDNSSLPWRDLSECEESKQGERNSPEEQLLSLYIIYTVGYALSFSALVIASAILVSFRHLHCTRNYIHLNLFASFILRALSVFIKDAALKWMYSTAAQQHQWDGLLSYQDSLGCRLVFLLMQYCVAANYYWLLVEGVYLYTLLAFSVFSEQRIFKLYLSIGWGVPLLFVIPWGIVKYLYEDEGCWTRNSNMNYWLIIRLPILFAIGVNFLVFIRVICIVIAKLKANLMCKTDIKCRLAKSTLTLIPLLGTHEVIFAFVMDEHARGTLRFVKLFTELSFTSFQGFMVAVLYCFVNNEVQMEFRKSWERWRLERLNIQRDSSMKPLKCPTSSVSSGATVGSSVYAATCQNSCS
Description: The cells were harvested 30 minutes post treatments. Cell lysates were prepared from the harvested cells. The cAMP levels in the lysate were then measured and expressed as pmole values. The error bars represent standard deviations of four times of measurements.
A Lance cAMP 384® Kit (Perkin Elmer, Inc) was used to compare the incretin effects of fusion protein and PEGylated protein. Rat Insulinoma cells (RINm5F) were cultured with RPMI1640 with 10% FBS in 75 cm^2 cell culture flasks. Cells are harvested and washed three times with HBSS (Invitrogen Corp.) buffer. A series of 5 μl test protein and 5 μl cell suspension with 5000 cells in stimulation buffer (1×HBSS buffer with 5 mM HEPES, 0.1% BSA and 150 mM IBMX) and Alexa, biotin labeled cAMP antibodies were incubated at 37° C. for 15 mins in 384-well plate. […] A VICTOR^3 plated reader (PerkinElmer, Inc.) was used to detect the fluorescence signal at excitation 340 nm and emission 665 nm and 615 nm. The collected data was then analyzed with the equation of F=F665 nm/F615 nm. […]
The effects of the PEGylated proteins and unPEGylated protein in stimulating the cAMP production were examined in rat insulinoma β-cells RINm5F. The cAMP production was analyzed using a commercial cAMP kit (PerkinElmer).

[6] = system: RINm5F cells; assay: Immunostaining binding analysis, RINm5F cells (GLP-1R expressed); assay type: cell-based, rat; conditions: Cal.GLP 10 μM, calbindin D9k 50 μM, 37° C., 30 mins
Description: (§1) FIG. 10 is a series of digital images showing immunofluorescence staining of CHO or RINm5F cells that were treated by calbindin (50 μM) and Cal.GLP (10 μM). The cells were extensively washed after 30 min treatments under 37° C. in microscopic chamber slides and subsequently fixed. The cells were stained with the calbindin-specific antibody and visualized under confocal microscopy. The light shading represents antibody staining.
(§2) To examine whether the developed protein indeed interacted with GLP-1R, the binding of the fusion protein with two cell lines, RINm5F and CHO cells was examined. It is well known that GLP-1R is expressed in RINm5F but not in CHO cells. Both RINm5F and CHO cells were incubated with fusion protein Cal.GLP (10 μM) or calbindin D9k (50 μM) at 37° C. for 30 mins. After extensive washing, the cells were fixed and subjected to immunostaining analyses using a rabbit polyclonal antibody against parental protein calbindin D9k. […] Similar binding analyses were carried out with RINm5F cells and a […] (αTC1).

[7] = system: CHO cells; assay: Immunostaining binding analysis, CHO cells (no GLP-1R); assay type: cell-based; conditions: Cal.GLP 10 μM, calbindin D9k 50 μM, 37° C., 30 mins
Description: as §1, §2

[8] = in vivo

CCCCCCCCCCCCCCCC(=O)N[C@@H](CCC(=O)NCCCC[C@H](NC(=O)[C@H](C)NC(=O)[C@H](C)NC(=O)[C@H](CCC(N)=O)NC(=O)CNC(=O)[C@H](CCC(=O)O)NC(=O)[C@H](CC(C)C)NC(=O)[C@H](Cc1ccc(O)cc1)NC(=O)[C@H](CO)NC(=O)[C@H](CO)NC(=O)[C@@H](NC(=O)[C@H](CC(=O)O)NC(=O)[C@H](CO)NC(=O)[C@@H](NC(=O)[C@H](Cc1ccccc1)NC(=O)[C@@H](NC(=O)CNC(=O)[C@H](CCC(=O)O)NC(=O)[C@H](C)NC(=O)[C@@H](N)Cc1cnc[nH]1)[C@@H](C)O)[C@@H](C)O)C(C)C)C(=O)N[C@@H](CCC(=O)O)C(=O)N[C@@H](Cc1ccccc1)C(=O)N[C@H](C(=O)N[C@@H](C)C(=O)N[C@@H](Cc1c[nH]c2ccccc12)C(=O)N[C@@H](CC(C)C)C(=O)N[C@H](C(=O)N[C@@H](CCCNC(=N)N)C(=O)NCC(=O)N[C@@H](CCCNC(=N)N)C(=O)NCC(=O)O)C(C)C)[C@@H](C)CC)C(=O)O [Liraglutide]
blood circulation time ([1]; in vivo): more than 10 hr

Exendin 4 [reference compound]
drop of blood glucose levels ([2]; 25 nmole/kg i.p., within 30 minutes): about 189 mg/dl
blood glucose levels after re-feed ([2]; 6 hours post administration, one hour after re-feed): almost reached the same blood glucose levels before the drug treatments
time of immediate insulin increase and glucose decrease [3]: ≤ 30 min

O=C(O)CN(CCN(CC(=O)O)CC(=O)O)CCN(CC(=O)O)CC(=O)O (Gd complex, metal not drawn) [DTPA, reference compound]
R1 [4]: 3.8 mM^−1S^−1

CC[C@H](C)[C@H](NC(=O)[C@H](Cc1ccccc1)NC(=O)[C@H](CCC(=O)O)NC(=O)[C@H](CCCCN)NC(=O)[C@H](C)NC(=O)[C@H](C)NC(=O)[C@H](CCC(N)=O)NC(=O)CNC(=O)[C@H](CCC(=O)O)NC(=O)[C@H](CC(C)C)NC(=O)[C@H](Cc1ccc(O)cc1)NC(=O)[C@H](CO)NC(=O)[C@H](CO)NC(=O)[C@@H](NC(=O)[C@H](CC(=O)O)NC(=O)[C@H](CO)NC(=O)[C@@H](NC(=O)[C@H](Cc1ccccc1)NC(=O)[C@@H](NC(=O)CNC(=O)[C@H](CCC(=O)O)NC(=O)[C@H](C)NC(=O)[C@@H](N)Cc1c[nH]cn1)[C@@H](C)O)[C@@H](C)O)C(C)C)C(=O)N[C@@H](C)C(=O)N[C@@H](Cc1c[nH]c2ccccc12)C(=O)N[C@@H](CC(C)C)C(=O)N[C@H](C(=O)N[C@@H](CCCCN)C(=O)NCC(=O)N[C@@H](CCCNC(=N)N)C(N)=O)C(C)C [GLP-1 peptide]
circulation time ([1]; degradation by DPP-4): less than 2 minutes

B1: Cal.GLP/Q26D: Q26D variant of the Cal.GLP fusion protein; SEQ ID NO: 18 (protein)
chain: MSTKKSPEELKRIFEKYAAKEGDPDDLSKDELKLLIQAEFPCLLKGPNTLDDLFQELDKNGHAEGTFTSDVSSYLEGQAAKEFIAWLVKGR
R1 [4]: 20 mM^−1S^−1

B2: calbindin: parental host protein human Calbindin D9k, negative control; SEQ ID NO: 13 (protein)
chain: MSTKKSPEELKRIFEKYAAKEGDPDQLSKDELKLLIQAEFPSLLKGPNTLDDLFQELDKNGDGEVSFEEFQVLVKKISQ
modifications: human calbindin D9K
increase of intracellular cAMP level [5]: could not increase cell intracellular cAMP level
binding to RINm5F cells [6]: did not bind to either cell
binding to CHO cells [7]: did not bind to either cell
change of blood glucose levels ([2]; control group, same dose (25 nmole/kg)): decreased slightly
blood glucose lowering post glucose and drug administration [3]: did not
R1 [4]: 6.58 mM^−1S^−1
blood circulation time [8]: more than 24 hours
